# Assay results: patent US12458630 (University of California, dated 2025)
# Changes are numbered by the printed parent chain. Names and notes keep the numbering of the source.
# B1: endogenous VAMP8 of MIA PaCa-2 cells (other, human, UniProt Q9BV40 1-100, looked up)
# chain: MEEASEGGGNDRVRNLQSEVEGVKNIMTQNVERILARGENLEHLRNKTEDLEATSEHFKTTSQKVARKFWWKNVKMIVLICVIVFIIILFIVLFATGAFS
# B2: IKKα W651A-Flag (LIR-mutated IKKα) (enzyme)
# chain: MERPPGLRPGAGGPWEMRERLGTGGFGNVCLYQHRELDLKIAIKSCRLELSTKNRERWCHEIQIMKKLNHANVVKACDVPEELNILIHDVPLLAMEYCSGGDLRKLLNKPENCCGLKESQILSLLSDIGSGIRYLHENKIIHRDLKPENIVLQDVGGKIIHKIIDLGYAKDVDQGSLCTSFVGTLQYLAPELFENKPYTATVDYWSFGTMVFECIAGYRPFLHHLQPFTWHEKIKKKDPKCIFACEEMSGEVRFSSHLPQPNSLCSLVVEPMENWLQLMLNWDPQQRGGPVDLTLKQPRCFVLMDHILNLKIVHILNMTSAKIISFLLPPDESLHSLQSRIERETGINTGSQELLSETGISLDPRKPASQCVLDGVRGCDSYMVYLFDKSKTVYEGPFASRSLSDCVNYIVQDSKIQLPIIQLRKVWAEAVHYVSGLKEDYSRLFQGQRAAMLSLLRYNANLTKMKNTLISASQQLKAKLEFFHKSIQLDLERYSEQMTYGISSEKMLKAWKEMEEKAIHYAEVGVIGYLEDQIMSLHAEIMELQKSPYGRRQGDLMESLEQRAIDLYKQLKHRPSDHSYSDSTEMVKIIVHTVQSQDRVLKELFGHLSKLLGCKQKIIDLLPKVEVALSNIKEADNTVMFMQGKRQKEIAHLLKIACTQSSARSLVGSSLEGAVTPQTSAWLPPTSAEHDHSLSCVVTPQDGETSAQMIEENLNCLGHLSTIIHEANEEQGNSMMNLDWSWLTE
# notes: also called LIR-mutated IKKα variant; pCDH-CMV-MCS-EF1-Puro-IKKα W651A-Flag; not shown: Flag tag
# B3: IKKα Y568A-Flag (LIR-mutated IKKα) (enzyme)
# chain: B2 chain with Y568A, A651W
# notes: also called LIR-mutated IKKα variant; pCDH-CMV-MCS-EF1-Puro-IKKα Y568A-Flag; not shown: Flag tag
# B4: endogenous syntaxin 17 (STX17) of MIA PaCa-2 cells (other, human, UniProt P56962 2-302, looked up)
# chain: SEDEEKVKLRRLEPAIQKFIKIVIPTDLERLRKHQINIEKYQRCRIWDKLHEEHINAGRTVQQLRSNIREIEKLCLKVRKDDLVLLKRMIDPVKEEASAATAEFLQLHLESVEELKKQFNDEETLLQPPLTRSMTVGGAFHTTEAEASSQSLTQIYALPEIPQDQNAAESWETLEADLIELSQLVTDFSLLVNSQQEKIDSIADHVNSAAVNVEEGTKNLGKAAKYKLAALPVAGALIGGMVGGPIGLLAGFKVAGIAAALGGGVLGFTGGKLIQRKKQKMMEKLTSSCPDLPSQTDKKCS
# notes: also called endogenous STX17
# Columns and labels:
# [1] = target: B4; assay: co-IP with STX17, IKKα-ablated MIA PaCa-2 cells re-expressing wt IKKα (FIG. 14D)
# [2] = target: endogenous LC3 (microtubule-associated protein light chain 3) of MIA PaCa-2 cells (human, UniProt Q9GZQ8 1-120); assay: co-IP in starved IKKα-ablated MIA PaCa-2 cells (FIG. 14C)
# [3] = target: B2; assay: as above
# [4] = target: B3; assay: as above
binder,measurement,setting,value
B1,binding result,[1],binds
B2,binding result,[2],no binding
B3,binding result,[2],no binding
B4,binding result,[3],no binding
same,binding result,[4],no binding
